Test: soluble on expression in E. coli; label from the status in PepcDB or PDB records

Q: With “MGSDKIHHHHHHMLLTLSICNFRSFGTEATLDLQRRGFRTQHPRKDETWQENTWRRAAIFGANAAGKSNVLRALGQLKLAITHSLTNEHWVRELRDPHSLCTDEPTSFEVEYVFDDVRYRWGLTLNHSGVVEEFLEANLSSRWRRIFERTGNSLIFGSNTGISHAAKENIEQFMRPWALVFSAWNTVKTPGPFAGALQWWQTLLPVIMSNEADQHNRHQWLVQLAQKDPTWLSVLQNVVAVADVGINKIGIEEQAPDLVKKIELTIQPDGQAEITDQFDSDEITEYLRYLMFEHSDGIHTFSLPETQESQGTKAWMDLAIPALFALSVGGVLSIDEIDGSLHPLLVRELVSYFDNSELNPLGAQLLFSTHDLTLLGKYPAESLHRGEVWLVEKERSYSELIALDEFPIRDAHNIEKRYLQGTYGAVPISNTTELLHTLEVLREKYTKMKQQ” as the sequence, how does the “soluble on expression in E. coli” value read?
A: not soluble

Q: For “MGSDKIHHHHHHMLNAKLLKLPTAAQQHHHEHHQIVVGVRGQAELSIDGSGACLDTWKACLVPTEARHDYCGDQQNHVLVINVDPFCAALSTPLHSDYDKLMRLFEKPRTVQMDNRIQGLVQFAAGEFDRSPDNRALHQHLAASILHCMAERIVDRPPVSSNRNSLNPEDIRRYIVGNLHRKITVQDLAGVACLSVSRFHEIFRQVTGTTPHQFLLQTRLDQAVGLLSSTSLSVSEISYRTGFSSQSALTNALRKHRGITPSRLQLNEHVA”, which “soluble on expression in E. coli” value is on record?
A: not soluble

Q: For “MGSDKIHHHHHHMLNMDLSQRVVINTADLEWQNSPAAGVLRKRLAREEAERGHATSIVKYQAGAKFNSHPHPLGEEILVLDGVFSDETGDYPAGTYLRNPEGFVHAPFSVQGCTLLVKLHQFQTTDSQQVAINTNETQWLPGHGQLQVMPLHQHGTESTALVKWPAGTHFQPHRHFGGEEIYVISGVFIDELGRYPAGTWIRSPHLSQHNPYVEQDTVILVKVGHL”, which “soluble on expression in E. coli” value is on record?
A: not soluble

Q: With “MGSDKIHHHHHHMLPGIVVKPLKTFADERGFFTEIMRRDWDVFEDEILQANMSVTYPGIVRAWHKHERGQVDYFVCIGGAIKICAYDDETQELAEIVSTGKNLQVVRVPGHYWHGFKAIGVEPAVLVYFVSRLYDYENPDEVRRPWNDSTIVPAKINGREDDPRCGKPWDWFYPPHK” as the sequence, how does the “soluble on expression in E. coli” value read?
A: not soluble

Q: Which “soluble on expression in E. coli” value does the source give for “MGSDKIHHHHHHMLQLSEFEPEVLYAFPFRNEHPGTYVYHQHDFLELSIMLEGYSDYNVEGQWRRVVAGQALLFNPGIHHQETQPPHTQSLQLHIGFRHIALPGQVPNHLPFKDALISLDDYRAEFMANAQRIVAESQRPTAFGHALLIQAMVIEQLCWLLRSLPENSVSNDYTELHQGNVSRDQQALVNAATYYLDVHYNEDLTLGTVAASLHVSAAYLSRTFKAIQGETPISYLTRLRMQRAKQLLMQEAITVRQVAHAVGYQDPYYFSKVFKRYFGAAPTLIER” here?
A: not soluble

Q: With “MGSDKIHHHHHHMLQPFLASADTFTQQHFANRHAILLKYPQSSAVTFAAAVWENSFHANALYFDVVGDVAWLPQLLEDLRQLADHHDRLQYSSYAAQSAVITQLQAKHFRAFRRTAMSDYRKVVATPEADVRSRSQLTSAQWHDVVQMSFANYVAAHADNPVTFNHATFEQQLAEAEDTQPSFLVENQQVQAYVFWFEDEPGALTSAWLGGQQFADIRRLLQTALFQVQARYSVVNGEFDDTDIHAWTVYQQLALPDPNPLISWQLLLDATRMP” as the sequence, how does the “soluble on expression in E. coli” value read?
A: not soluble

Q: With “MGSDKIHHHHHHMLSIAIAAEFELSEKIVETLEQTQLEIESLTIIEIKPFKEEQGIRFNNKAVVQIMPEEADWTEFNYVLFAGTIEHVDLLAKIADSGCIVIDVLGICASLANIPVVVPGINDDQLIELRQRNIVSLPNPQVTQCALAISNIVNSIHQLVVTSLLPASYVEAEQVAKLAGQTAQLLNGIPLDTEQQRLAFDVFPVQTQNLVIQLQKIYPQLENIVFHQIQVPVFYGMGQFVTALSDYLVDIESQLHFWQENELIQYHAEKLITPVTHGENENNEEKVKLHISTLSAAENKIEFWSVADEQHFNLALMAVKLLELIG” as the sequence, how does the “soluble on expression in E. coli” value read?
A: not soluble

Q: For “MGSDKIHHHHHHMLSLGLADSRAISKANSGSERHVREVIKRLSLRYKLYYLPTTHAFLDAISEDQLKEIKKFAKVPSFFEYLLDKKLGKVSLLRELFTFSPLAKELVREYEREIGILDFIYVPHTYRIQLMPSILFSKLSRGKYGMLLMTDPHNSLLEKESFFKCVNVWSKIWFSRKSAIEFCSFQRLQNIAFLLKAIKTKPSFISVMNKCALNYTGLPKYFNTKVLSPPHAFNNLALKYRNFDKEDYLVFLGRINTAKGANEALEVGKHVKLKMIGYKEQEFIVKQARSFGIEVIENVSEEEKFEILSKARALVLPSHQESFSVTILEALAVGTPVITYDLPSLTSTYNFKPVFFVKEFDVKGLVNTALEVYNMKKIEEMFNDERLEEFIKMHSSWDNVSNAVDKLITEAIQE”, which “soluble on expression in E. coli” value is on record?
A: not soluble

Q: For “MGSDKIHHHHHHMLSLTEQLNRGPVVSDGAMATELEKRGVATNSALWSATAMLDHPDAIQAVHQSYLDAGAKIMTTNTYQANVPAFEQAGIAAVQARQLIQQAVTIAHTARDASHVTDAVIAGSIGPYGAYLADGSEYTGAYQLTPSAYQDFHRERLALIMAAGVDVLALETMPRLDEVQALVQLITTTWPQQPYWVSFSIKDPQTLCDGTSLAVAAKWVAAQPNVVAVGVNCTTLENIAPALTTLKAAVAVPLIVYPNSGDQYDPVTKTWQETHLSHQFASFVPQWLAAGARIIGGCCRTTPKDIATVARALSVSDSAKL”, which “soluble on expression in E. coli” value is on record?
A: not soluble

Q: With “MGSDKIHHHHHHMLSRIAESLFWIGRYVERADGTARILDVHLERLNHLPTEERDNVARELLAVMGARPESDEFGLEELLHALAYDKQSATSIAGSLGAARENARRARETVSSGLWESLNTTYYGLNQHRKDVVGTYRFCHWVLERTAMVSGLADTTVSHDDSWLFLALGRSLERADMTARMLSTRDVLSAGMSWVNMLRCAGAYESFLRTRRAAFGDQHAAEFLLLDRLFPRSIVYALRDADECLAKLDPSAQRVGFINDARRIVGQARTFLEFHRTDDLMSELPEHMERVQKAVSQASDAISRKYFNQADELAWVGEVS” as the sequence, how does the “soluble on expression in E. coli” value read?
A: not soluble

Q: With “MGSDKIHHHHHHMLSRPVRILIADEIGLGKTIQALAIARYLELQGEAKKILILVPKILREQWKQEIRRLGGKPVVITNGSEVERKLLRKATFNNAAEYFVVSIDLAKSQNHSEKFSAIDWDLLIVDEVHNVTYNTQRYNFLKSLIEKSKEDLNIVFLSATPHRGNPKDYIERLRLLDPTLTADWNALDSEKFYRRTHGVLVFRRTKKVVNDLEKREIFKKCDFNAVIVDITEEEKRFFEELDEVLFEMVKDVHMNSPVALLAVLLRKRAASSYESALKTINNIIKNQYSGASGEDVLEDQIKQIFGLGYDEMELEENSEIDDLISSIINSVAKRYPLDKGQINALEKILKIGKAIGKNDSKLKTLAEVLAYHLKKNEKVIVFTEFKDTLEYLRNNLPTLLEQEGIHLSEEKDISVLHGGMKSEEIEKQVEKFANDGKLLISTDVASEGLNLQVANILINYEIPWSPIKLEQRVGRIWRLNQTKETIAYTLLLNHEADLQILESLYQKILNITDAVGTGPNVGKPVFGTRTLSGNFEYRLENVQDEETSDSPVSEFELMLSAIKRRNLDEQTKRIISTLKSLRTKIEEVVPLNTCNEIQEELNSVLLPDDMESEIVFEKLKKYISVFENSFINSIGSYLFKILTDRIHEPLLNEKCLKIAVKNESKEYRLFQVEVIDRGRKIYEYPVLIEIGGNVSPQLYRGTSLLEKLADVFSKEWFVIEWANPKEKMDIQTAKLIDRSAKDLQSIMDKHTDYDIKLNESLMKTDSLFRRLNTRSSEILRVEGLSDREFSVFKLLHPSILEILGLSLDSIELPPSDYEKWMERSFVPLEDILESERKAMEIVMDIEKKRLIEKYGESSDWKVEDVSLKEHYDIKVSEPEGEKYIEVKGHKPLWLSAELTAAEHRFANDNRDRYWIYIVSNLGGKKPVILKIFSPFDDEKRKIYLVHENKDIDITEIFGSTIKTKQRYVISLGQKIYRRR” as the sequence, how does the “soluble on expression in E. coli” value read?
A: not soluble

Q: Which “soluble on expression in E. coli” value does the source give for “MGSDKIHHHHHHMLTMIQQYHIKHLNFHKGKSLRSIAEETGHDFRTVKKYAEQTDFNEIRKPKRGRPSKLDPVKPIIDAWLKEDLNRPVKQRHTARRIYDRLCDEHQDIFNACERTVRTYVSARKKELYGEEEGYLPLEHPAGEAQVDFGEIVMIEQGQKVKGYELILSLPYSNAGYPQIFRGQNQECLLTGLKDIF” here?
A: not soluble

Q: Which “soluble on expression in E. coli” value does the source give for “MGSDKIHHHHHHMLTQDQDQKQRNWKPIIKAFEAVLGTNGVVQRREELITYECDGLTSYRQRPAVAVLPRTTEQVAAVVKICNQYAVPFIARGSGTGLSGGALPSEDSVLIVTSLMRQILNVDLDNQRIVVQPGVINSWVTQTVSGAGFYYAPDPSSQIICSIGGNVAENSGGVHCLKYGVTTNHVLGLKIVTPEGEIVDLGGQIPEAPGYDLTGIFVGSEGTLGIATEITLRILKSAESICVLLADFTSVEAAGATVSDIISAGIIPGGMEMMDNVSINAVEDVVATNCYPRDATAILLVEIDGLDVEVAVNKQRVTDICQQNGARSVTSASDPETRLKLWKGRKAAFAAAGHLSPDYYVQDGVIPRTQLPYVLQEIEALSQKFGYPIANVFHAGDGNLHPLILFDNSISGALEKVEELGGEILKLCVRVGGSISGEHGIGADKKCYMPDMFSDVDLETMQWIRQVFNPQGLANPGKIFPTPRTCGEAANAIKNQHFEGVERF” here?
A: not soluble

Q: With “MGSDKIHHHHHHMLTTRKALYYLDKGKTKEAIHLLETCWNQKVTAENKRDIFTATVLLSDVLYQSGERFPEIYQKLMSILEEMQDLEAVDFEREKAKQIFAELDEYFSEVGTFFQGHSLAELWLKFDSENDYKDVYPTPQRVAAIEAELGYKLPKSYIYLMRHTQNGGIVSTGSVPTTEPSSWSENCVAITGIMGIGDCGVSTLNGMHNTNFWTEEWGYPDVGLAIADCPSAGHDMVFLDYRNCGKTGEPAVVHIDQEGDYKILKLADNFEEFILSLYREEY” as the sequence, how does the “soluble on expression in E. coli” value read?
A: not soluble

Q: With “MGSDKIHHHHHHMLYPVKLLKDLVQIKTANPPGSEYESISFYLKDLFNDLGFQIQLIEIPEEYMDKYYIYSPSHKGNKRIIVIAKNSPNPILHFNFHYDVVPPGDGWLTNPFELKVVDNKAYGRGTSDMKGSIVSLYLALSRFNDLPIEIVFVPDEESGGIGTKYLTEEIRIAPSTAIFGEPSFPNVYIGHLGIVRGIIKIFGKQAHASNPKDGINAFLLASKLALKLQEKLGNEIVNLGGYTLNPTNNDGIVPGFFAFSYYRAIPPHDNRTPEFDKNVIDTTAREVGIEYNFEIKSFISGSVSNPDSSVAKAFKFCITSTLNVVPKELISNIRYDAVFYKNLDSINFGPGSLDQAHVPNEYVELDNIEKTIVIYECVMKRIYFNNYR” as the sequence, how does the “soluble on expression in E. coli” value read?
A: not soluble

Q: With “MGSDKIHHHHHHMMEGKDDADLFADLGLSESIASIPSYTFIRDGLNRIFASSNNIWNVLIGTRLTPPKPLSDYDLVHIHNPVPLAGMVSVALHCRIKGIPYCVTTHGISKVPKIPEELGLSRGQRIVFNHGFLRAYKNVLSNATHLFALSEGDQDTITEWFSDQSVSVLPNGVDLNVSPEAPEVDTKVDLPDKPVLLFVGRIMASKGVDDLLEAFSLLEHDCKLIIVGPMRDEHFKDQIHTLSDDVEYRGYVEQAELDALYRRADLFVFPTRSDVFPLVTLEAMAAGTPVVSTTVGGLPEQIPDQVGRLVPPKEPKTFAAAVDGMLSNEQLRTEMGRAGKSLVEERYSWEAVAKAAVTEYYRIVN” as the sequence, how does the “soluble on expression in E. coli” value read?
A: not soluble

Q: Which “soluble on expression in E. coli” value does the source give for “MGSDKIHHHHHHMMELINNRGMRDWMIFIKVAEVGNLSRAARELDISISAVSKSLSRLENSIEVTLLRRDSHHLELTGAGQTAYASMKRITSSFQSLLDELRNPDKIIRGSIKFSAPAIVCEFLANKWIWEFTASYPDTKIYLDSRERSDFFSKSLEFDELVFKSGIIESEDLVYRKISPLKLVLCASPKYIRKYGRISHPGDLENHIIVGLHNHGLSGPLTLFRQDESYTISGAVNVHLSSNNLLSVLNLVLEGKGINLMTPAWLATKYLKNNELEIILPEWRVPDLPIYLVWRHRQYYSPLFQRFLSFIEDKWNNRPQIDFLNDD” here?
A: not soluble

Source: the DeepSol protein solubility set
